Laboratory results from patent US20080020978A1 (Amgen, published 2008).
Numbered stars: 1 amine (or outer) side, 2 acyl side, 3 side chain; on linkers, the order of the positions; unused ones are H or OH. Square brackets hold non-standard residues; d marks the D form. * marks the point of attachment. octavalent 20 kDa PEG = 20 kDa PEG with eight arms, each linked to one peptide copy through Cys; tetravalent 20 kDa PEG = 20 kDa PEG with four arms, each linked to one peptide copy through Cys; trivalent 20 kDa PEG = 20 kDa PEG with three arms, each linked to one peptide copy through Cys; 20 kDa MeO‑PEG = methoxy-polyethylene glycol of 20 kDa conjugated to the residue side chain; 13C1,2Ac = N-terminal acetyl group labelled with 13C at carbons 1 and 2, [13CH3][13C](=O)*; 15N‑F = phenylalanine labelled with 15N, O=C([C@H](Cc1ccccc1)[15NH][*:1])[*:2]; Cit = NC(=O)NCCC[C@H](N)C(=O)O; 3IPA = not defined here

These binders were tested against CGRP1 receptor (CRLR/RAMP1 complex) of human neuroblastoma SK-N-MC cells (human, UniProt Q16602 23-461; O60894 27-148) (assay: cell-based or functional assay).
CGRP1 receptor (CRLR/RAMP1 complex) of human neuroblastoma SK-N-MC cells, sequence (Q16602 23-461, chain 1 of 2): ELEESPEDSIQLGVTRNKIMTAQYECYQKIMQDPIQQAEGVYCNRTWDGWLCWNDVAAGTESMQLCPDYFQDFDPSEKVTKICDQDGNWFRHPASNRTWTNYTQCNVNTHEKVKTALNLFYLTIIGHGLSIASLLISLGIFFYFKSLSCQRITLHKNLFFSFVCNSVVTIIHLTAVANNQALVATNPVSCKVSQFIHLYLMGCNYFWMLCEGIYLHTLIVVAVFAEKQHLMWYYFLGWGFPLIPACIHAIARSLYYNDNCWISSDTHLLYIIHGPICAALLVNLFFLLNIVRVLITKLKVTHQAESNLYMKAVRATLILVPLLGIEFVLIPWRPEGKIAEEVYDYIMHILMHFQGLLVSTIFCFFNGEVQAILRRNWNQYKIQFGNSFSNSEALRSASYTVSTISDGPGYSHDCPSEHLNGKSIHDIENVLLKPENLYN
CGRP1 receptor (CRLR/RAMP1 complex) of human neuroblastoma SK-N-MC cells, sequence (O60894 27-148, chain 2 of 2): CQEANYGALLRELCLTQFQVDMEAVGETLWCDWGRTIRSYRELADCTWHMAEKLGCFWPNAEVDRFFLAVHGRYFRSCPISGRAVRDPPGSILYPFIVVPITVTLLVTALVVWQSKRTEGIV

| Binder | IC50 [nM] |
| --- | --- |
| Ac-WVTH[Cit]LAGLAS[Cit]SGGVVRK(20 kDa MeO‑PEG)NFVPTDVGPFAF-NH2 [SEQ ID NO 853] | > 1000 |
| Ac-WVTHRLAGLLSRSGGVVRC(tetravalent 20 kDa PEG)NFVPTDVGPFAF-NH2 (also: tetravalent PEG joins four peptide copies) [SEQ ID NO 782] | 0.08 |
| Ac-WVTHRLAGLLSQSGGVVRKNFVPTDVGPFAF-NH2 [SEQ ID NO 814] | 0.47 |
| Ac-WVTHRLAGLLS[dR]SGGVVRCNFVPTDVGPFAF-NH2 (SMILES CC(=O)N[C@@H](Cc1c[nH]c2ccccc12)C(=O)N[C@H](C(=O)N[C@H](C(=O)N[C@@H](Cc1c[nH]cn1)C(=O)N[C@@H](CCCNC(=N)N)C(=O)N[C@@H](CC(C)C)C(=O)N[C@@H](C)C(=O)NCC(=O)N[C@@H](CC(C)C)C(=O)N[C@@H](CC(C)C)C(=O)N[C@@H](CO)C(=O)N[C@H](CCCNC(=N)N)C(=O)N[C@@H](CO)C(=O)NCC(=O)NCC(=O)N[C@H](C(=O)N[C@H](C(=O)N[C@@H](CCCNC(=N)N)C(=O)N[C@@H](CS)C(=O)N[C@@H](CC(N)=O)C(=O)N[C@@H](Cc1ccccc1)C(=O)N[C@H](C(=O)N1CCC[C@H]1C(=O)N[C@H](C(=O)N[C@@H](CC(=O)O)C(=O)N[C@H](C(=O)NCC(=O)N1CCC[C@H]1C(=O)N[C@@H](Cc1ccccc1)C(=O)N[C@@H](C)C(=O)N[C@@H](Cc1ccccc1)C(N)=O)C(C)C)[C@@H](C)O)C(C)C)C(C)C)C(C)C)[C@@H](C)O)C(C)C) [SEQ ID NO 776] | 0.59 |
| Ac-WVTHRLAGLLSRSGGVVRC(40 kDa branched MeO‑PEG2)NFVPTDVGPFAF-NH2 [SEQ ID NO 769] | 33.4 |
| Ac-WVTHRLAGLLSRSGGVC(20 kDa MeO‑PEG)RNNFVPTDVGPFAF-NH2 [SEQ ID NO 821] | 0.16 |
| Ac-WVTHRLAGLLSQSGGVVRK(20 kDa MeO‑PEG)NFVPTDVGPFAF-NH2 [SEQ ID NO 815] | 0.46 |
| WVTHRLAGLLSRSGGVVRNCFVPTDVGPFAF (Ac-WVTHRLAGLLSRSGGVVRNC^(20 kDa MeO-PEG)FVPTDVGPFAF-amide) [SEQ ID NO 801] | 1.64 |
| Ac-WVTHRLAGLLSRSGGVKRNNFVPTDVGPFAF-NH2 [SEQ ID NO 823] | 0.51 |
| {13C1,2Ac}-WVTHRLAGLLSRSGGVVRK(20 kDa MeO‑PEG)NFVPTDVGPFA[15N‑F]-NH2 [SEQ ID NO 803] | 3.28 |
| Ac-WVTHRLAGLLSRSGGVVRC(20 kDa NEM‑PEG)NFVPTDVGPFAF-NH2 [SEQ ID NO 771] | 0.3 |
| Ac-WVTHRLAGLLS[dR]SGGVVRC(MeO‑PEG 20 kDa)NFVPTDVGPFAF-NH2 [SEQ ID NO 777] | 19.4 |
| Ac-WVTHQLAGLLSQSGGVVRKNFVPTDVGPFAF-NH2 [SEQ ID NO 816] | 0.53 |
| Ac-WVTHRLAGLLSRSGGVCRNNFVPTDVGPFAF-NH2 [SEQ ID NO 820] | 0.36 |
| {Ac-3IPA}-VTHRLAGLLSRSGGVVRC(20 kDa MeO‑PEG)NFVPTDVGPFAF-NH2 (reading uncertain; also: places 3IPA at position 1, printed as Ac-[3IPA]-VTHRLAGLLSRSGGVVRC^(20 kDa MeO-PEG)NFVPTDVGPFAF-amide) [SEQ ID NO 779] | 2.22 |
| Ac-WVTHRLAGLLSRSGGVVRC(20 kDa branched MeO‑PEG2)NFVPTDVGPFAF-NH2 [SEQ ID NO 770] | 0.17 |
| Ac-WVTHRLAGLAS[Cit]SGGVVRK(MeO‑PEG 20 kDa)NFVPTDVGPFAF-NH2 [SEQ ID NO 851] | 228 |
| Ac-WVTHRLAGLLSRPGGVVRK(20 kDa MeO‑PEG)NFVPTDVGPFAF-NH2 [SEQ ID NO 855] | 18 |
| Ac-WVTHRLAGLLSRPGGVVRKNFVPTDVGPFAF-NH2 [SEQ ID NO 854] | 1.27 |
| Ac-WVTHRLAGLLSRSGGVVRC(trivalent 20 kDa PEG)NFVPTDVGPFAF-NH2 (also: trivalent PEG joins three peptide copies) [SEQ ID NO 781] | 0.19 |
| Ac-WVTHRLAGLLSRSGGVVRC(20 kDa branched MeO‑PEG2)NFVPTDVGPFAF-NH2 [SEQ ID NO 768] | 23.8 |

| Binder | IC50 [nM] |
| --- | --- |
| Ac-WVTHQLAGLLSQSGGVVRK(20 kDa MeO‑PEG)NFVPTDVGPFAF-NH2 [SEQ ID NO 818] | 7.18 |
| Ac-WVTHRLAGLAS[Cit]SGGVVRKNFVPTDVGPFAF-NH2 (SMILES CC(=O)N[C@@H](Cc1c[nH]c2ccccc12)C(=O)N[C@H](C(=O)N[C@H](C(=O)N[C@@H](Cc1c[nH]cn1)C(=O)N[C@@H](CCCNC(=N)N)C(=O)N[C@@H](CC(C)C)C(=O)N[C@@H](C)C(=O)NCC(=O)N[C@@H](CC(C)C)C(=O)N[C@@H](C)C(=O)N[C@@H](CO)C(=O)N[C@@H](CCCNC(N)=O)C(=O)N[C@@H](CO)C(=O)NCC(=O)NCC(=O)N[C@H](C(=O)N[C@H](C(=O)N[C@@H](CCCNC(=N)N)C(=O)N[C@@H](CCCCN)C(=O)N[C@@H](CC(N)=O)C(=O)N[C@@H](Cc1ccccc1)C(=O)N[C@H](C(=O)N1CCC[C@H]1C(=O)N[C@H](C(=O)N[C@@H](CC(=O)O)C(=O)N[C@H](C(=O)NCC(=O)N1CCC[C@H]1C(=O)N[C@@H](Cc1ccccc1)C(=O)N[C@@H](C)C(=O)N[C@@H](Cc1ccccc1)C(N)=O)C(C)C)[C@@H](C)O)C(C)C)C(C)C)C(C)C)[C@@H](C)O)C(C)C) [SEQ ID NO 850] | 1.85 |
| Ac-WVTHRLAGLLSQSGGVVRC(20 kDa MeO‑PEG)NFVPTDVGPFAF-NH2 [SEQ ID NO 775] | 4.69 |
| Ac-WVTHRLAGLLSRSGGVK(20 kDa MeO‑PEG)RNNFVPTDVGPFAF-NH2 [SEQ ID NO 824] | 0.98 |
| Ac-WVTHRLAGLLSASGGVVRC(20 kDa MeO‑PEG)NFVPTDVGPFAF-NH2 [SEQ ID NO 773] | 6.2 |
| {Ac-3IPA}-VTHRLAGLLSRSGGVVRCNFVPTDVGPFAF-NH2 (reading uncertain; also: places 3IPA at position 1, printed as Ac-[3IPA]-VTHRLAGLLSRSGGVVRCNFVPTDVGPFAF-amide) [SEQ ID NO 778] | 0.35 |
| Ac-WVTHRLAGLLSASGGVVRCNFVPTDVGPFAF-NH2 [SEQ ID NO 772] | 2.75 |
| WVTHXLAGLLSXSGGVVRKNFVPTDVGPFAF (Ac-WVTH[hArg]LAGLLS[hArg]SGGVVRKNFVPTDVGPFAF-amide) [SEQ ID NO 784] | 2.1 |
| WVTHXLAGLLSXSGGVVRKNFVPTDVGPFAF (Ac-WVTH[Cit]LAGLLS[Cit]SGG VVRKNFVPTDVGPFAF-amide) [SEQ ID NO 790] | 1.7 |
| WVTHRLAGLLSXSGGVVRKNFVPTDVGPFAF (Ac-WVTHRLAGLLS[Cit]SGG VVRKNFVPTDVGPFAF-amide) [SEQ ID NO 796] | 0.58 |
| WVTHRLAGLLSXSGGVVRKNFVPTDVGPFAF (Ac-WVTHRLAGLLS[hArg]SGGVVRKNFVPTDVGPFAF-amide) [SEQ ID NO 786] | 0.57 |
| WVTHXLAGLLSRSGGVVRKNFVPTDVGPFAF (Ac-WVTH[hArg]LAGLLSRSGGVVRKNFVPTDVGPFAF-amide) [SEQ ID NO 788] | 0.44 |
| WVTHXLAGLLSRSGGVVRKNFVPTDVGPFAF (Ac-WVTH[Cit]LAGLLSRSGGV VRKNFVPTDVGPFAF-amide) [SEQ ID NO 798] | 0.57 |
| WVTHXLAGLLSRSGGVVRKNFVPTDVGPFAF (Ac-WVTH[hArg]LAGLLSRSGGVVRK^(20 kDa MeO-PEG)NFVPTDVGPFAF-amide) [SEQ ID NO 789] | 0.36 |
| WVTHRLAGLLSXSGGVVRKNFVPTDVGPFAF (Ac-WVTHRLAGLLS[hArg]SGGVVRK^(20 kDa MeO-PEG)NFVPTDVGPFAF-amide) [SEQ ID NO 787] | 0.33 |
| WVTHXLAGLLSRSGGVVRKNFVPTDVGPFAF (Ac-WVTH[Cit]LAGLLSRSGGV VRK^(20 kDa MeO-PEG)NFVPTDVGPFAF-amide) [SEQ ID NO 799] | 2.08 |
| WVTHRLAGLLSXSGGVVRKNFVPTDVGPFAF (Ac-WVTHRLAGLLS[Cit]SGG VVRK^(20 kDa MeO-PEG)NFVPTDVGPFAF-amide) [SEQ ID NO 797] | 0.96 |
| WVTHXLAGLLSXSGGVVRKNFVPTDVGPFAF (Ac-WVTH[hArg]LAGLLS[hArg]SGGVVRK^(20 kDa MeO-PEG)NFVPTDVGPFAF-amide) [SEQ ID NO 785] | 0.37 |
| Ac-WVTHQLAGLLSQSGGVVRK(20 kDa MeO‑PEG)NFVPTDVGPFAF-NH2 [SEQ ID NO 817] | 5.24 |
| Ac-WVTHRLAGLLSRSGGVVRC(octavalent 20 kDa PEG)NFVPTDVGPFAF-NH2 (also: eight peptides linked via Cys to one octavalent 20 kDa PEG) [SEQ ID NO 783] | 1.4 |
| Ac-WVTH[Cit]LAGLAS[Cit]SGGVVRKNFVPTDVGPFAF-NH2 [SEQ ID NO 852] | 23.4 |
